PMC5789076, “Molecular basis for the specific and multivariant recognitions of RNA substrates by human hnRNP A2/B1”

Assays:
Test in all cases: ITC; ITC: 10 mM HEPES pH 8.0, 50 mM KCl, 1 mM EDTA, 1 mM BME, 25 C (protein into RNA); EMSA: 10 mM HEPES pH 8.0, 50 mM KCl, 1 mM EDTA, 5 mM BME, room temperature 30
hnRNP A2/B1 RRM1-RRM2 = hnRNP A2/B1 RRM1-RRM2 (human, UniProt P22626 12-195); settings: protein: recombinant; tags: N-terminal His6-SUMO removed by Ulp1; single strand
[1] = target: hnRNP A2/B1 RRMs + RGG box (human, UniProt P22626 1-249); settings: protein: recombinant; tags: N-terminal His6-SUMO removed by Ulp1; single strand
Sequence of hnRNP A2/B1 RRMs + RGG box (P22626 1-249): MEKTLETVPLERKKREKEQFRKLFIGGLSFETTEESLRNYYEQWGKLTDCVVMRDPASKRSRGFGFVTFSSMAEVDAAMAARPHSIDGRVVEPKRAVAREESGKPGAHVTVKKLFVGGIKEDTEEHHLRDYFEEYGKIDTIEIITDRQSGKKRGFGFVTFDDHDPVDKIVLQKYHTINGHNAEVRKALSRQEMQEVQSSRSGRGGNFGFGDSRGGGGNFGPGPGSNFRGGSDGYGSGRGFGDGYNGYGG

hnRNP A2/B1 full-length = hnRNP A2/B1 full-length (human, UniProt P22626 1-353); settings: protein: recombinant; tags: prepared with His6(-SUMO) tag or untagged; single strand
Sequence of hnRNP A2/B1 full-length (P22626 whole entry): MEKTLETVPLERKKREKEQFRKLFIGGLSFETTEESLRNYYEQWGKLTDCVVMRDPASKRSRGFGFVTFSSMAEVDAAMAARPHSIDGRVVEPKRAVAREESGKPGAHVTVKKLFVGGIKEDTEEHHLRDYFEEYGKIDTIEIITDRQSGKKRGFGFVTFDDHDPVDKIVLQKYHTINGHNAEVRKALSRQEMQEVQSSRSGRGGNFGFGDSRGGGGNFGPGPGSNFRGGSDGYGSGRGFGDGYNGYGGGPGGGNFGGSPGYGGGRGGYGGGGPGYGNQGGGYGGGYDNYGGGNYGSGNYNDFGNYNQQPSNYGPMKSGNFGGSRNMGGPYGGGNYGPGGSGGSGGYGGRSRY

[2] = target: hnRNP A2/B1 (12-195) H108A (human, UniProt P22626 12-195, H108A); settings: protein: recombinant; tags: His6-SUMO removed; single strand
Sequence of hnRNP A2/B1 (12-195) H108A (P22626 12-195 H108A): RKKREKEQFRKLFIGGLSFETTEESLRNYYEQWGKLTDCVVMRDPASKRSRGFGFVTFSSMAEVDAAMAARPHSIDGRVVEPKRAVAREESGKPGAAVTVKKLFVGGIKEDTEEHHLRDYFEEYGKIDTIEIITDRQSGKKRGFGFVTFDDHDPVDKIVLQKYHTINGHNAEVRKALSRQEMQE

[3] = target: hnRNP A2/B1 (12-195) F157A (human, UniProt P22626 12-195, F157A); settings: protein: recombinant; tags: His6-SUMO removed; single strand
Sequence of hnRNP A2/B1 (12-195) F157A (P22626 12-195 F157A): as the sequence (P22626 12-195 H108A) above, with A97H, F146A counted along it

[4] = target: hnRNP A2/B1 (12-195) E92A (human, UniProt P22626 12-195, E92A); settings: protein: recombinant; tags: His6-SUMO removed; single strand
Sequence of hnRNP A2/B1 (12-195) E92A (P22626 12-195 E92A): as the sequence (P22626 12-195 H108A) above, with E81A, A97H counted along it

[5] = target: hnRNP A2/B1 (12-195) Q19A (human, UniProt P22626 12-195, Q19A); settings: protein: recombinant; tags: His6-SUMO removed; single strand
Sequence of hnRNP A2/B1 (12-195) Q19A (P22626 12-195 Q19A): as the sequence (P22626 12-195 H108A) above, with Q8A, A97H counted along it

[6] = target: hnRNP A2/B1 (12-195) F24A (human, UniProt P22626 12-195, F24A); settings: protein: recombinant; tags: His6-SUMO removed; single strand
Sequence of hnRNP A2/B1 (12-195) F24A (P22626 12-195 F24A): as the sequence (P22626 12-195 H108A) above, with F13A, A97H counted along it

[7] = target: hnRNP A2/B1 (12-195) K120A (human, UniProt P22626 12-195, K120A); settings: protein: recombinant; tags: His6-SUMO removed; single strand
Sequence of hnRNP A2/B1 (12-195) K120A (P22626 12-195 K120A): as the sequence (P22626 12-195 H108A) above, with A97H, K109A counted along it

[8] = target: hnRNP A2/B1 (12-195) F115A (human, UniProt P22626 12-195, F115A); settings: protein: recombinant; tags: His6-SUMO removed; single strand
Sequence of hnRNP A2/B1 (12-195) F115A (P22626 12-195 F115A): as the sequence (P22626 12-195 H108A) above, with A97H, F104A counted along it

[9] = target: hnRNP A2/B1 (12-195) E183A (human, UniProt P22626 12-195, E183A); settings: protein: recombinant; tags: His6-SUMO removed; single strand
Sequence of hnRNP A2/B1 (12-195) E183A (P22626 12-195 E183A): as the sequence (P22626 12-195 H108A) above, with A97H, E172A counted along it

[10] = target: hnRNP A2/B1 (12-195) F66A (human, UniProt P22626 12-195, F66A); settings: protein: recombinant; tags: His6-SUMO removed; single strand
Sequence of hnRNP A2/B1 (12-195) F66A (P22626 12-195 F66A): as the sequence (P22626 12-195 H108A) above, with F55A, A97H counted along it

[11] = target: hnRNP A2/B1 (12-195) K113A (human, UniProt P22626 12-195, K113A); settings: protein: recombinant; tags: His6-SUMO removed; single strand
Sequence of hnRNP A2/B1 (12-195) K113A (P22626 12-195 K113A): as the sequence (P22626 12-195 H108A) above, with A97H, K102A counted along it

[12] = target: hnRNP A2/B1 (12-195) D49A (human, UniProt P22626 12-195, D49A); settings: protein: recombinant; tags: His6-SUMO removed; single strand
Sequence of hnRNP A2/B1 (12-195) D49A (P22626 12-195 D49A): as the sequence (P22626 12-195 H108A) above, with D38A, A97H counted along it

Sequence of hnRNP A2/B1 RRM1-RRM2 (P22626 12-195): as the sequence (P22626 12-195 H108A) above, with A97H counted along it

| Binder | Kd (hnRNP A2/B1 RRM1-RRM2) [nM] | also measured |
| --- | --- | --- |
| AUGGACUAGC (ssRNA) [A1U] | 532 ± 66.7 | – |
| AAGGACUACC (ssRNA) [G8C] | 292 ± 44.2 | – |
| AAAGACUAGC (ssRNA) [G2A] | 316 ± 37 | – |
| AGGACUGC (ssRNA) [8mer] | 276 ± 27.5 | Kd [1]: 465 ± 53.2 nM |
| AAGGACUAGC (ssRNA, m6A at position 5) [10mer-m6A] | 1320 ± 143 | Kd [1]: 176 ± 25.3 nM; Kd (hnRNP A2/B1 full-length): 172 ± 25.6 nM |
| AAUGACUAGC (ssRNA) [G2U] | 581 ± 58.1 | – |
| AAGGACUGGC (ssRNA) [A7G] | 108 ± 11.5 | – |
| AAGAACUAGC (ssRNA) [G3A] | 244 ± 25.3 | – |
| AGGACUGC (ssRNA, m6A at position 4) [8mer-m6A] | 461 ± 47.4 | Kd [1]: 505 ± 44.2 nM |
| AACGACUAGC (ssRNA) [G2C] | 699 ± 88.5 | – |
| AAGGACUAUC (ssRNA) [G8U] | 272 ± 30.7 | – |
| AAGGACAAGC (ssRNA) [U6A] | 204 ± 19.9 | – |
| AAGGACUAGC (ssRNA) [10mer] | 115 ± 11.5 | Kd [2]: 167 ± 19.2 nM; Kd [3]: 535 ± 97.1 nM; Kd [4]: 752 ± 85.5 nM; Kd [5]: 440 ± 42 nM; Kd [1]: 26.5 ± 1.8 nM; Kd [6]: 457 ± 35.5 nM; Kd [7]: 413 ± 50.5 nM; Kd [8]: 781 ± 87.7 nM; Kd [9]: 290 ± 47.8 nM; Kd [10]: 763 ± 10.2 nM; Kd (hnRNP A2/B1 full-length): 103 ± 8.93 nM; Kd [11]: 813 ± 1.17 nM; Kd [12]: 562 ± 69.4 nM |
| AAGGACCAGC (ssRNA) [U6C] | 184 ± 16.3 | – |
| AAGCACUAGC (ssRNA) [G3C] | 952.4 ± 1.14 | – |
| AAGGACUAAC (ssRNA) [G8A] | 107 ± 16.2 | – |
| ACGGACUAGC (ssRNA) [A1C] | 662 ± 54.3 | – |
